B1: Zinc finger MYM-type protein 3, residues 405 to 444; numbered along this chain, Q14202 (parent)
chain: DATRCSICQKTGEVLHEVSNGSVVHRLCSDSCFSKFRANK

Variants of: B1
Test: abundance fitness (aPCA) (normalised: wild type 0, dead -1); higher = more abundant; growth selection in yeast, the domain comes from the species named
Conditions: Homo sapiens

Abundance fitness of substitutions, site by site:
L27: M 0.033 | H -0.382 | P -0.458 | F -0.019 | R -0.393 | N -0.618 | W -0.205 | E -0.352 | V -0.22 | K -0.317 | G -0.331 | Y -0.056 | Q -0.294 | D -0.569 | C 0.032 | S -0.447 | A -0.393 | I -0.129
E13: V -0.298 | H -0.204 | P -0.236 | D -0.2 | W -0.696 | C -0.855 | M -0.074 | S -0.201 | I -0.448 | Q -0.052 | F 0.036 | K -0.049 | L -0.391 | R -0.19 | N -0.216 | T -0.111 | G -0.271
D30: P -0.371 | H -0.425 | E -0.041 | Y -0.857 | Q -0.079 | K -0.109 | G -0.269 | I -0.734 | S -0.387 | R -0.231 | L -0.398 | C -1.66 | M -0.28 | V -0.384 | W -1.07 | N -0.721 | T -0.219 | F -0.632
V14: D -0.228 | L -0.344 | H -0.667 | E -0.453 | T -0.033 | F -0.068 | Q -0.142 | Y -0.461 | S -0.185 | P -0.057 | N -0.087 | R -0.374 | A -0.173 | K -0.43 | M -0.029 | I -0.029 | C -0.453 | G -0.08 | W -0.561
V18: M -0.266 | N -0.358 | E -0.15 | P -0.258 | W -0.228 | A -0.183 | K -0.267 | I -0.067 | R -0.334 | Q -0.243 | G -0.42 | C -0.201 | L -0.157 | H -0.209 | F -0.095
H16: M -0.551 | I -0.701 | Y -0.466 | P -0.605 | L -0.645 | E -0.033 | K -0.158 | G -0.306 | T -0.352 | F -0.208 | Q -0.053 | S -0.319 | N -0.252 | V -0.492 | C -1.09 | R -0.121 | D -0.379
V24: Y -0.133 | L -0.077 | I -0.064 | G -0.255 | W -0.292 | K 0.032 | C -0.206 | F -0.307 | E -0.03 | H -0.034 | T -0.038 | M 0.048
L15: K 0.079 | V -0.034 | Q 0.102 | G -0.153 | P -0.033 | N -0.038 | F -0.092 | T -0.141 | Y -0.142 | E -0.227 | S 0.047 | H 0.017 | R 0.07 | I 0.001
E17: N -0.291 | T -0.089 | L -0.764 | K -0.073 | P -0.697 | R -0.44 | W -0.959 | Y -1.02 | H -0.285 | M -0.395 | V -0.487 | A -0.759 | D -0.251 | G -0.594 | I -0.458 | S -0.192 | F -0.606 | C -0.358
G21: F -0.366 | P -0.392 | S -0.193 | V -0.611 | W -0.701 | K -0.214 | L -0.298 | Q 0.043 | C -0.335 | D 0.016 | R -0.354 | N -0.646 | H -0.235 | E 0.008 | M -0.243 | Y -0.389
S22: H -0.055 | E 0.006 | D -0.432 | C -0.56 | N 0.029 | Q -0.001 | P -0.039 | L -0.208 | T 0.018 | A -0.109 | M 0.021 | I -0.153 | Y -0.303 | V -0.571 | W -0.419 | R -0.136
N20: S -0.069 | P -0.559 | V -0.296 | H -0.033 | I 0.047 | C -0.517 | M -0.001 | R -0.135 | F -0.431 | E 0.055 | G -0.21 | W -0.415 | A -0.068 | D 0.153 | Q -0.004 | K -0.138
S31: F -0.166 | N -0.089 | C -0.185 | A -0.063 | L -0.022 | I 0.064 | G 0.055 | K 0.081 | D 0.094 | H -0.16 | M -0.006
H25: T -0.046 | W -0.247 | N -0.031 | K -0.006 | M -0.129 | G -0.164 | P -0.363 | R -0.318 | S -0.138 | A -0.122 | I -0.216 | Y -0.385 | L -0.266 | E 0.205 | Q -0.038 | V -0.507
R26: T -0.048 | W -0.21 | Y -0.339 | C -0.312 | H -0.074 | Q 0.097 | I -0.173 | F -0.177 | D -0.606 | A -0.02 | P -0.074 | K 0.013 | N -0.195 | E -0.283 | G -0.117 | M -0.12 | L -0.196
S29: T -0.771 | H -0.683 | R -0.684 | E -0.325 | P -0.487 | L -0.755 | V -0.596 | W -0.669 | Q -0.427 | F -1.05 | G -0.277 | D -0.404 | M -0.622 | Y -0.936 | A -0.363 | I -0.857 | K -0.602 | C -0.591
T11: V -0.452 | L -0.116 | W -0.627 | Q -0.157 | R -0.287 | N -0.14 | P -0.499 | S -0.315
C28: Q -0.809 | A -0.594 | L -0.886 | W -1.02 | F -1.09 | P -0.639 | T -0.853 | G -0.623 | R -0.873 | I -0.95 | D -0.529 | Y -0.85 | V -0.808 | E -0.576 | H -0.733 | N -0.765 | K -0.823
S19: V -0.135 | M -0.12 | D -0.078 | N 0.052 | F -0.101 | P 0.023 | K 0.176 | R -0.078 | Y -0.383 | Q 0.059 | I -0.11 | L -0.233 | T -0.009 | H -0.268 | G -0.1 | A -0.215 | E 0.066
V23: C -0.937 | G 0.018 | N 0.14 | Q 0.181 | P -0.374 | H 0.092 | S 0.007 | M 0.13 | E 0.103 | T 0.126 | A -0.085 | I -0.087 | L -0.317 | D 0.079 | F -0.01 | R -0.013 | W -0.757 | K 0.114 | Y -0.166
G12: E -0.083 | M -0.089 | R -0.165 | D -0.311 | F -0.414 | S -0.115 | T -0.092 | Q -0.228 | W -0.639 | L -0.245 | H -0.215 | P -0.639 | I -0.21 | N -0.511 | V -0.137
